Laboratory results published in PMC2880403 (Journal of molecular biology, 2010).

Target: T1, DsbA C33S (Escherichia coli, UniProt P0AEG4 20-208, C33S)
T1 sequence (looked up): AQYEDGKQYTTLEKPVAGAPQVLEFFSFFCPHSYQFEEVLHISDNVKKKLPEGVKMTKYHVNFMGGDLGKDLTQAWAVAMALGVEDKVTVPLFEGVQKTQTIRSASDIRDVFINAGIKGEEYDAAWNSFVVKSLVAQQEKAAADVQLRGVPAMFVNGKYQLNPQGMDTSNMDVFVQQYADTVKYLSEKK
Assay: absorbance titration at 500 nm

- binding result: binds
B1: His-tagged "wildtype" DsbB containing mutations of nonessential cysteines (C8A, C49V) (enzyme, Escherichia coli, UniProt P0A6M2 1-176, looked up)
chain: MLRFLNQASQGRGAWLLMAFTALALELTALWFQHVMLLKPCVLCIYERVALFGVLGAALIGAIAPKTPLRYVAMVIWLYSAFRGVQLTYEHTMLQLYPSPFATCDFMVRFPEWLPLDKWVPQVFVASGDCAERQWDFLGLEMPQWLLGIFIAYLIVAVLVVISQPFKAKKRDLFGR
